Assay results taken from patent publication US7708999B2, “Remedies for arthritis” (Kyowa Hakko Kirin Co., Ltd., priority 2001, dated 2010).

What was measured:
FGF-8 [1] = target: T1, FGF-8 (Homo sapiens, UniProt P55075); assay: Inhibition by antibody of FGF-8-promoted growth of rabbit synovial cells; assay type: cell-based; conditions: FGF-8 100 ng/mL, 0.1, 0.3, 1, 3 or 10 μg/ml tested
T1 construct: purchased R & D
T1 sequence (P55075 23-215 isoform P55075-3 limits assumed): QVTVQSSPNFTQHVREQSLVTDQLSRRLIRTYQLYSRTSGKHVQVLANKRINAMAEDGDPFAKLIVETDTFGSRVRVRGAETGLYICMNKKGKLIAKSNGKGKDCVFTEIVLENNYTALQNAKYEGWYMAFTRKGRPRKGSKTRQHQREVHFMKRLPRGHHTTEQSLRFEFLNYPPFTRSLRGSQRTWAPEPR
Method: (§1) Rabbit synovial cells were collected by the method of Hamilton et al. (Hamilton J. A. and Slywka J., J. Immunol. 126, 851-855, 1981). The isolated synovial cells were suspended in RPMI 1640 medium comprising 10 vol % FBS (FBS-comprising RPMI 1640 medium is hereinafter referred to as FBS/RPMI 1640), and 10,000 cells was inoculated at each well of a 96-well culture plate. After 24 hours of the culturing, the culture medium of each well was removed, and 200 μL of 0.2 vol % FBS/RPMI 1640 (non-stimulated group) or 0.2 vol % FBS/RPMI 1640 comprising FGF-8 (1, 10 or 100 ng/mL) was added. When the activity of the anti-FGF-8 neutralizing antibody was examined, 200 μL of 0.2 vol % FBS/RPMI 1640 comprising FGF-8 (100 ng/mL) (0 group) or 0.2 vol % FBS/RPMI 1640 comprising FGF-8 (100 ng/mL) and anti-FGF-8 neutralizing antibody KM1334 (0.1, 0.3, 1, 3 or 10 μg/ml) was added to each well. After 48 hours of the culturing, 9.25 kBq per well of [^3H]thymidine was added. The culturing was further performed for 24 hours, and the radioactivity of [^3H]thymidine incorporated in the cells was measured using a liquid scintillation counter (1205 Beta Plate, manufactured by Perkin Elmer Life Science Japan). Six experiments were performed for each condition, and the mean values and the standard error were calculated.

FGF-8 [2] = target: T1, FGF-8; assay: Inhibition by antibody of FGF-8-promoted growth of human synovial cells; assay type: cell-based; conditions: FGF-8 500 ng/mL
Method: as §1, with “When the activity of the anti-FGF-8 neutralizing antibody was examined, 200 μL of 0.2 vol % FBS/RPMI 1640 comprising FGF-8 (100 ng/mL) (0 group) or 0.2 vol % FBS/RPMI 1640 comprising FGF-8 (100 ng/mL) and anti-FGF-8 neutralizing antibody KM1334 (0.1, 0.3, 1, 3 or 10 μg/ml) was added to each well. After 48 hours of the culturing, 9.25 kBq per well of [^3H]thymidine was added.” left out
The same experiment as in Example 3 was performed using human synovial cells derived from the rheumatoid arthritis patient (procured from Toyobo). […] Six experiments were performed for each condition, and the mean values and the standard error were calculated.

[3] = system: rat adjuvant arthritis model; assay: Rat adjuvant arthritis model; assay type: in vivo
Method: The rat adjuvant arthritis model was performed in the following manner according to the method of Pearson et al. (Pearson CM. et al., Arthritis Rheum., 5, 654-658, 1962) using Lewis rats (female, 8 weeks old, Japan Charles River).
Mycobacterium butyricum (manufactured by Difco) was suspended in a liquid paraffin (manufactured by Wako Pure Chemical Industries, Ltd.) to a final concentration of 6 mg/mL, and sterilized with a autoclave. The resulting solution was intradermally injected into the rat right hind pad in an amount of 100 μL for sensitization. One group consisted of 8 to 10 rats. Anti-FGF-8 neutralizing antibody KM1334 was dissolved in saline to a final concentration of 2 mg/mL. The solution was intraperitoneally administered to a KM1334 administrated group once a day at a dose of 0.5 mL per 100 g of the body weight for each rat on the sensitization day of the rat adjuvant arthritis model and on days 3, 7, 10, 14 and 17 from the sensitization. To saline administrated group, only saline was intraperitoneally administered instead of the anti-FGF-8 neutralizing antibody KM1334 solution. Further, sodium diclofenac, an antiinflammatory agent, was dissolved in a 0.5 w/v % methyl cellulose solution to a final concentration of 0.3 mg/mL, and the solution was orally administered to a sodium diclofenac administrated group as a positive control once a day at a dose of 1 mL per 100 g of the body weight on days 4, 7 to 11 and 14 to 18 from the adjuvant sensitization day. 50 mg of methotrexate® for injection (manufactured by Wyeth Japan) as a metabolic antagonist was dissolved in a 0.5 w/v % methyl cellulose solution to a final concentration of 0.01 mg/mL, and the solution was administered to a methotrexate administrated group in the same manner as in the sodium diclofenac administrated group. Prednisolone (manufactured by Sigma-Aldrich), a steroidal agent, was suspended in a 0.5 w/v % methyl cellulose solution to a final concentration of 0.3 mg/mL, and the suspension was administered to a prednisolone administrated group in the same manner as in the sodium diclofenac administrated group. Further, a 0.5 w/v % methyl cellulose solution alone was orally administered to a solvent administrated group in the same manner. An untreated group was used, and it was not subjected to sensitization with Mycobacterium butyricum and administration of an agent. The volumes of the adjuvant-treated paw and the adjuvant-untreated paw were measured as time goes by using a device for measuring edemas of rat hind paw (TK-101, manufactured by Unicom).
Using urine collected for 24 hours at day 20 and day 21 after the sensitization, the amounts of glycosaminoglycan, deoxypyridinoline, hydroxyproline and creatinine in urine were measured. The amount of glycosaminoglycan in urine was measured by the DMMB method described in Example 1. The amount of hydroxyproline in urine was measured by the method of Ikeda et al. (Ikeda Shingo et al., Tokyo Eiken Nenpo, 36 277-282, 1985). That is, 0.8 mL of hydrochloric acid for amino acid analysis (manufactured by Kanto Kagaku) was added to 0.8 mL of urine to hydrolyze at 110° C. for 15 hours. To 0.5 mL of the hydrolyzed sample was added 2 mL of a 1.2 mol/L sodium hydroxide solution for neutralization. 1 mL of isopropanol was added to 0.5 mL of the neutralized sample, and 1 ml of an oxidant solution was added. The mixture was stirred well, and allowed to stand at room temperature for 5 minutes. […]

[4] = adjuvant-untreated paw, score 0 to 4, mean ± standard error
[5] = urine day 20 to 21, KM1334 intraperitoneally, vs saline group

B1: KM1334: anti-FGF-8 neutralizing monoclonal antibody produced by hybridoma KM1334 (FERM BP-5451), mouse IgG1 subclass (antibody, V domains shown)
VH: QVQLQQSGAEVARPGASVKLSCKASGYTFTDYYLNWVKQRSGQGLEWIGEIDPGSDSIYYNENLEGRATLTADKSSSTAYMQLNSLTSEDSAVYFCARYGYSRYDVRFVYWGQGTLVTVST
VL: DVLMTQTPLSLPVSLGDQASISCRSSQSLVHSNGRTYLEWYLQKPGQSPKVLIYKVSNRISGVPDRFSGSGSGTDFTLKISRVEAEDLGVYFCFQGSHVPYTFGGGTKLEIK
For B1, which “antibody concentration from which the FGF-8-dependent incorporation of [3H]thymidine was significantly inhibited” value (FGF-8 [1]) is on record?
The value was ≥ 0.3 µg/mL.

What about the “antibody concentration from which the FGF-8-dependent incorporation of [3H]thymidine was significantly inhibited” value (FGF-8 [2]) of the same molecule?
Its value is ≥ 1 µg/mL.

And the Bone destruction score ([3]; Table 1, soft X-ray of calcaneus, adjuvant-untreated paw, day 21, maximum 5, mean ± standard error)?
Its Bone destruction score is 3.2 ± 0.5.

And the “Bone destruction score (% inhibition)” value ([3]; Table 1, vs saline group, not significant)?
Its value is 27%.

What about the “Pathological score: Blood cell plasma leak to articular cavity” value [3, 4] of the same molecule?
Its value is 1.6 ± 0.3.

What about the “Pathological score: Blood leak around joint” value [3, 4] of the same molecule?
Its value is 2.0 ± 0.4.

What about the “inhibition of the increase in paw volume, adjuvant-untreated paw” value ([3]; day 21, 2 mg/mL, 0.5 mL per 100 g intraperitoneally, vs saline group) of the same molecule?
Its value is 69%.

And the “decrease of the increase in amount of hydroxyproline in urine” value ([3]; urine day 20 to 21, KM1334 intraperitoneally, not significant)?
Its value is 48%.

And the “inhibition of the increase in amount of deoxypyridinoline in urine (deoxypyridinoline/creatinine ratio)” value [3, 5]?
The value was 41%.

And the “inhibition of the increase in amount of glycosaminoglycan in urine (glycosaminoglycan/creatinine ratio)” value [3, 5]?
The value was 73%.

And the “Blood cell plasma leak to articular cavity (Percent inhibition)” value ([3]; vs saline group)?
The value was 41%.

And the “Blood leak around joint (Percent inhibition)” value ([3]; vs saline group)?
Its value is 41%.
